The values below come from patent US20210388087A1 (Chugai, published 2021).

Numbering of substitutions follows the chain as printed. Names and notes keep the numbering of the source.

First the molecules themselves.
T1: Human CD3eg linker (human)
T1 construct: Single chain: epsilon and gamma subunits of human CD3 joined by a 29-mer linker, Flag-tag at the C-terminus; also called recombinant human CD3
T1 chain: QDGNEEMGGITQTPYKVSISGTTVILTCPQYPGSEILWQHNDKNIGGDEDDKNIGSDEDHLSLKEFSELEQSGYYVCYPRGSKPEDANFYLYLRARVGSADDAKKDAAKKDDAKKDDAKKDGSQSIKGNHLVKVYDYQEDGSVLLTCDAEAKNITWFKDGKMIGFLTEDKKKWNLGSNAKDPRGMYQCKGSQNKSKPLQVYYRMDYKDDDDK

B1: H183/L072 VH W33Y (antibody, name in Kabat numbering, V domains shown)
VH: QVQLVESGGGLVQPGRSLRLSCAASGFTFSNAYMHWVRQAPGKGLEWVAQIKDKGNAYAAYYAPSVKGRFTISRDDSKNSIYLQMNSLKTEDTAVYYCHYVHYASASTVLPAFGVDAWGQGTTVTVSS
VL: DIVMTQSPLSLPVTPGEPASISCQASQELVHMNRNTYLHWYQQKPGQAPRLLIYKVSNRFPGVPDRFSGSGSGTDFTLKISRVEAEDVGVYYCAQGTSVPFTFGQGTKLEIK
B2: H183/L072 VH Y58N (antibody, name in Kabat numbering, V domains shown)
VH: B1 VH with Y33W, Y61N
VL: B1 VL
B3: H183/L072 VH Y58L (antibody, name in Kabat numbering, V domains shown)
VH: B1 VH with Y33W, Y61L
VL: B1 VL
B4: H183/L072 VH Y55K (antibody, name in Kabat numbering, V domains shown)
VH: B1 VH with Y33W, Y58K
VL: B1 VL
B5: H183/L072 VH Y58T (antibody, name in Kabat numbering, V domains shown)
VH: B1 VH with Y33W, Y61T
VL: B1 VL
B6: H183/L072 VH Y58Q (antibody, name in Kabat numbering, V domains shown)
VH: B1 VH with Y33W, Y61Q
VL: B1 VL
B7: H183/L072 VH Y58A (antibody, name in Kabat numbering, V domains shown)
VH: B1 VH with Y33W, Y61A
VL: B1 VL
B8: H183/L072 VH Y58D (antibody, name in Kabat numbering, V domains shown)
VH: B1 VH with Y33W, Y61D
VL: B1 VL
B9: H183/L072 VH Y55W (antibody, name in Kabat numbering, V domains shown)
VH: B1 VH with Y33W, Y58W
VL: B1 VL
B10: H183/L072 VH Y55A (antibody, name in Kabat numbering, V domains shown)
VH: B1 VH with Y33W, Y58A
VL: B1 VL
B11: H183/L072 VH Y58P (antibody, name in Kabat numbering, V domains shown)
VH: B1 VH with Y33W, Y61P
VL: B1 VL
B12: H183/L072 VH Y55P (antibody, name in Kabat numbering, V domains shown)
VH: B1 VH with Y33W, Y58P
VL: B1 VL
B13: H183/L072 VH Y55F (antibody, name in Kabat numbering, V domains shown)
VH: B1 VH with Y33W, Y58F
VL: B1 VL
B14: H183/L072 VH Y58G (antibody, name in Kabat numbering, V domains shown)
VH: B1 VH with Y33W, Y61G
VL: B1 VL
B15: H183/L072 VH Y55R (antibody, name in Kabat numbering, V domains shown)
VH: B1 VH with Y33W, Y58R
VL: B1 VL
B16: H183/L072 VH Y59A (antibody, name in Kabat numbering, V domains shown)
VH: B1 VH with Y33W, Y62A
VL: B1 VL
B17: H183/L072 VH Y59F (antibody, name in Kabat numbering, V domains shown)
VH: B1 VH with Y33W, Y62F
VL: B1 VL
B18: H183/L072 VH Y58V (antibody, name in Kabat numbering, V domains shown)
VH: B1 VH with Y33W, Y61V
VL: B1 VL
B19: H183/L072 VH Y58H (antibody, name in Kabat numbering, V domains shown)
VH: B1 VH with Y33W, Y61H
VL: B1 VL
B20: H183/L072 VH Y58M (antibody, name in Kabat numbering, V domains shown)
VH: B1 VH with Y33W, Y61M
VL: B1 VL
B21: H183/L072 VH Y59D (antibody, name in Kabat numbering, V domains shown)
VH: B1 VH with Y33W, Y62D
VL: B1 VL
B22: H183/L072 VH Y55L (antibody, name in Kabat numbering, V domains shown)
VH: B1 VH with Y33W, Y58L
VL: B1 VL
B23: H183/L072 VH Y58W (antibody, name in Kabat numbering, V domains shown)
VH: B1 VH with Y33W, Y61W
VL: B1 VL
B24: H183/L072 VH Y59E (antibody, name in Kabat numbering, V domains shown)
VH: B1 VH with Y33W, Y62E
VL: B1 VL
B25: H183/L072 VH Y55M (antibody, name in Kabat numbering, V domains shown)
VH: B1 VH with Y33W, Y58M
VL: B1 VL
B26: H183/L072 VH Y55T (antibody, name in Kabat numbering, V domains shown)
VH: B1 VH with Y33W, Y58T
VL: B1 VL
B27: H183/L072 VH Y58E (antibody, name in Kabat numbering, V domains shown)
VH: B1 VH with Y33W, Y61E
VL: B1 VL
B28: H183/L072 VH Y55N (antibody, name in Kabat numbering, V domains shown)
VH: B1 VH with Y33W, Y58N
VL: B1 VL
B29: H183/L072 VH Y55Q (antibody, name in Kabat numbering, V domains shown)
VH: B1 VH with Y33W, Y58Q
VL: B1 VL
B30: H183/L072 VH Y58F (antibody, name in Kabat numbering, V domains shown)
VH: B1 VH with Y33W, Y61F
VL: B1 VL
B31: H183/L072 VH Y55V (antibody, name in Kabat numbering, V domains shown)
VH: B1 VH with Y33W, Y58V
VL: B1 VL
B32: H183/L072 VH Y55E (antibody, name in Kabat numbering, V domains shown)
VH: B1 VH with Y33W, Y58E
VL: B1 VL
B33: H183/L072 VH Y55S (antibody, name in Kabat numbering, V domains shown)
VH: B1 VH with Y33W, Y58S
VL: B1 VL
B34: H183/L072 VH Y58R (antibody, name in Kabat numbering, V domains shown)
VH: B1 VH with Y33W, Y61R
VL: B1 VL
B35: H183/L072 VH Y58I (antibody, name in Kabat numbering, V domains shown)
VH: B1 VH with Y33W, Y61I
VL: B1 VL
B36: H183/L072 VH Y55H (antibody, name in Kabat numbering, V domains shown)
VH: B1 VH with Y33W, Y58H
VL: B1 VL
B37: H183/L072 VH Y55D (antibody, name in Kabat numbering, V domains shown)
VH: B1 VH with Y33W, Y58D
VL: B1 VL
B38: H183/L072 VH Y59G (antibody, name in Kabat numbering, V domains shown)
VH: B1 VH with Y33W, Y62G
VL: B1 VL
B39: H183/L072 VH Y55I (antibody, name in Kabat numbering, V domains shown)
VH: B1 VH with Y33W, Y58I
VL: B1 VL
B40: H183/L072 VH Y58S (antibody, name in Kabat numbering, V domains shown)
VH: B1 VH with Y33W, Y61S
VL: B1 VL
B41: H183/L072 VH Y58K (antibody, name in Kabat numbering, V domains shown)
VH: B1 VH with Y33W, Y61K
VL: B1 VL
B42: H183/L072 VH Y55G (antibody, name in Kabat numbering, V domains shown)
VH: B1 VH with Y33W, Y58G
VL: B1 VL

The assay deals with T1, Human CD3eg linker. Nature of the assay: Biacore SPR, vs template H183/L072. On the technique in general: SPR reads the build-up and loss of mass on a sensor chip optically.
As for B1, the “fold change of affinity” value worked out at 0.1 fold. For the molecule B2, the “fold change of affinity” value amounted to 0.5 fold. For the molecule B3, the “fold change of affinity” value worked out at 0.4 fold.

Consider B4, for which the “fold change of affinity” value was found to be 0.4 fold. To B5 belongs 0.2 fold; to B6, 0.3 fold; to B7, 0.6 fold. To B8 belongs 0 fold; to B9, 0.5 fold; to B10, 0.4 fold. Turning to B11, the “fold change of affinity” value worked out at 0.5 fold.

Take B12: the “fold change of affinity” value came to 0 fold. As for B13, the figure is 0.8 fold; as for B14, 0.3 fold.

For the molecule B15, the “fold change of affinity” value was 0.4 fold. To B16 belongs 1 fold. Regarding B17, the “fold change of affinity” value was determined as 0.6 fold. For the molecule B18, the “fold change of affinity” value amounted to 0.3 fold. To B19 belongs 0.6 fold. To B20 belongs 0.4 fold; to B21, 1.1 fold; to B22, 0.5 fold. To B23 belongs 0 fold; to B24, 1.1 fold.

As to B25, the “fold change of affinity” value is 0.6 fold. On to B26, for which the “fold change of affinity” value is 0 fold. In the case of B27, the “fold change of affinity” value turned out to be 0.2 fold. Consider B28, for which the “fold change of affinity” value was 0.7 fold. Regarding B29, the “fold change of affinity” value was found to be 0.5 fold. As for B30, the figure is 1.4 fold; as for B31, 0.3 fold. As for B32, the figure is 0.6 fold; as for B33, 0 fold. As for B34, the figure is 0.5 fold; as for B35, 0.3 fold. Consider B36, for which the “fold change of affinity” value was 0.7 fold. To B37 belongs 0.4 fold; to B38, 1.1 fold; to B39, 0 fold.

For B40, the “fold change of affinity” value is 0.4 fold.

With B41, the “fold change of affinity” value came to 0.6 fold. As for B42, the figure is 0.6 fold.
